{
  "source": "patent US9957297B2",
  "about": "“Template-fixed peptidomimetics as inhibitors of FPR1” (POLYPHOR AG, priority 2011, dated 2018)",
  "note": "Bridges are numbered along the chain shown (N, C = ends). [ ]: non-standard residue; d: D form.",
  "data": [
    {"target": "T1, Formyl-Peptide Receptor 1 (UniProt P21462 1-350, limits assumed)", "T1 sequence (looked up)": "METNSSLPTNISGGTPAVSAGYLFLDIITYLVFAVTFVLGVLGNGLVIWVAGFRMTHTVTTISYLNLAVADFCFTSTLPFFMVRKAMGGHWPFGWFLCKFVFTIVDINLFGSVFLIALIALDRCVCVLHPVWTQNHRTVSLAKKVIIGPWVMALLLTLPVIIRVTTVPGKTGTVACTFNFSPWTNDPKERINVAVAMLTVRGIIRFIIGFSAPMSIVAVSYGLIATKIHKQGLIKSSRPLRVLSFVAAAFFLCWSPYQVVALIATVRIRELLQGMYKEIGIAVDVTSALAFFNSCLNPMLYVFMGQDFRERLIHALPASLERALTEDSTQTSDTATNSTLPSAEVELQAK", "assay": "cell-based or functional assay", "units": {"β-Arrestin IC50": "nM"}, "values": [
      {"binder": "cyclo(YHACHG[dP]WTICYQK[dT]P) (disulfide 4-11; SMILES CC[C@H](C)[C@@H]1NC(=O)[C@H]([C@@H](C)O)NC(=O)[C@H](Cc2c[nH]c3ccccc23)NC(=O)[C@H]2CCCN2C(=O)CNC(=O)[C@H](Cc2c[nH]cn2)NC(=O)[C@@H]2CSSC[C@H](NC1=O)C(=O)N[C@@H](Cc1ccc(O)cc1)C(=O)N[C@@H](CCC(N)=O)C(=O)N[C@@H](CCCCN)C(=O)N[C@H]([C@H](C)O)C(=O)N1CCC[C@H]1C(=O)N[C@@H](Cc1ccc(O)cc1)C(=O)N[C@@H](Cc1c[nH]cn1)C(=O)N[C@@H](C)C(=O)N2)", "note": "[cyclo(-Tyr-His-Ala-Cys-His-Gly-^DPro-Trp-Thr-Ile-Cys-Tyr-Gln-Lys-^DThr-Pro-)]", "β-Arrestin IC50": 641},
      {"binder": "cyclo(YHKCHG[dA]WTICYEK[dP]E) (disulfide 4-11; SMILES CC[C@H](C)[C@@H]1NC(=O)[C@H]([C@@H](C)O)NC(=O)[C@H](Cc2c[nH]c3ccccc23)NC(=O)[C@@H](C)NC(=O)CNC(=O)[C@H](Cc2c[nH]cn2)NC(=O)[C@@H]2CSSC[C@H](NC1=O)C(=O)N[C@@H](Cc1ccc(O)cc1)C(=O)N[C@@H](CCC(=O)O)C(=O)N[C@@H](CCCCN)C(=O)N1CCC[C@@H]1C(=O)N[C@@H](CCC(=O)O)C(=O)N[C@@H](Cc1ccc(O)cc1)C(=O)N[C@@H](Cc1c[nH]cn1)C(=O)N[C@@H](CCCCN)C(=O)N2)", "note": "[cyclo(-Tyr-His-Lys-Cys-His-Gly-^DAla-Trp-Thr-Ile-Cys-Tyr-Glu-Lys-^DPro-Glu-)]", "β-Arrestin IC50": 77},
      {"binder": "cyclo(YHKCHG[dP]WTICYEK[dA]P) (disulfide 4-11; SMILES CC[C@H](C)[C@@H]1NC(=O)[C@H]([C@@H](C)O)NC(=O)[C@H](Cc2c[nH]c3ccccc23)NC(=O)[C@H]2CCCN2C(=O)CNC(=O)[C@H](Cc2c[nH]cn2)NC(=O)[C@@H]2CSSC[C@H](NC1=O)C(=O)N[C@@H](Cc1ccc(O)cc1)C(=O)N[C@@H](CCC(=O)O)C(=O)N[C@@H](CCCCN)C(=O)N[C@H](C)C(=O)N1CCC[C@H]1C(=O)N[C@@H](Cc1ccc(O)cc1)C(=O)N[C@@H](Cc1c[nH]cn1)C(=O)N[C@@H](CCCCN)C(=O)N2)", "note": "[cyclo(-Tyr-His-Lys-Cys-His-Gly-^DPro-Trp-Thr-Ile-Cys-Tyr-Glu-Lys-^DAla-Pro-)]", "β-Arrestin IC50": 65},
      {"binder": "cyclo(YHACWG[dP]WTICYQK[dK]P) (disulfide 4-11; SMILES CC[C@H](C)[C@@H]1NC(=O)[C@H]([C@@H](C)O)NC(=O)[C@H](Cc2c[nH]c3ccccc23)NC(=O)[C@H]2CCCN2C(=O)CNC(=O)[C@H](Cc2c[nH]c3ccccc23)NC(=O)[C@@H]2CSSC[C@H](NC1=O)C(=O)N[C@@H](Cc1ccc(O)cc1)C(=O)N[C@@H](CCC(N)=O)C(=O)N[C@@H](CCCCN)C(=O)N[C@H](CCCCN)C(=O)N1CCC[C@H]1C(=O)N[C@@H](Cc1ccc(O)cc1)C(=O)N[C@@H](Cc1c[nH]cn1)C(=O)N[C@@H](C)C(=O)N2)", "note": "[cyclo(-Tyr-His-Ala-Cys-Trp-Gly-^DPro-Trp-Thr-Ile-Cys-Tyr-Gln-Lys-^DLys-Pro-)]", "β-Arrestin IC50": 195},
      {"binder": "cyclo(YHACHG[dA]WTICYQK[dP]P) (disulfide 4-11; SMILES CC[C@H](C)[C@@H]1NC(=O)[C@H]([C@@H](C)O)NC(=O)[C@H](Cc2c[nH]c3ccccc23)NC(=O)[C@@H](C)NC(=O)CNC(=O)[C@H](Cc2c[nH]cn2)NC(=O)[C@@H]2CSSC[C@H](NC1=O)C(=O)N[C@@H](Cc1ccc(O)cc1)C(=O)N[C@@H](CCC(N)=O)C(=O)N[C@@H](CCCCN)C(=O)N1CCC[C@@H]1C(=O)N1CCC[C@H]1C(=O)N[C@@H](Cc1ccc(O)cc1)C(=O)N[C@@H](Cc1c[nH]cn1)C(=O)N[C@@H](C)C(=O)N2)", "note": "[cyclo(-Tyr-His-Ala-Cys-His-Gly-^DAla-Trp-Thr-Ile-Cys-Tyr-Gln-Lys-^DPro-Pro-)]", "β-Arrestin IC50": 458},
      {"binder": "cyclo(YHACWG[dP]WTICYQK[dA]P) (disulfide 4-11; SMILES CC[C@H](C)[C@@H]1NC(=O)[C@H]([C@@H](C)O)NC(=O)[C@H](Cc2c[nH]c3ccccc23)NC(=O)[C@H]2CCCN2C(=O)CNC(=O)[C@H](Cc2c[nH]c3ccccc23)NC(=O)[C@@H]2CSSC[C@H](NC1=O)C(=O)N[C@@H](Cc1ccc(O)cc1)C(=O)N[C@@H](CCC(N)=O)C(=O)N[C@@H](CCCCN)C(=O)N[C@H](C)C(=O)N1CCC[C@H]1C(=O)N[C@@H](Cc1ccc(O)cc1)C(=O)N[C@@H](Cc1c[nH]cn1)C(=O)N[C@@H](C)C(=O)N2)", "note": "[cyclo(-Tyr-His-Ala-Cys-Trp-Gly-^DPro-Trp-Thr-Ile-Cys-Tyr-Gln-Lys-^DAla-Pro-)]", "β-Arrestin IC50": 133}
    ]}
  ]
}
